Assay results reported in US20240002500A1 (GUANGDONG FAPON BIOPHARMA, published 2024).
Positions count from the first letter of the chain named. Values belong to the binder of their own block, whether it stands above or below them.

Experiments:
[1] = molecular target: T1, full-length cynoTIGIT on CHO cells (monkey (cyno), UniProt A0A7N9I9V4 89-312); experiment: FACS titration on CHO-cynoTIGIT cells, PE goat anti-mouse IgG
T1 construct: whole, on cells; also called CHO-cynoTIGIT; monkey TIGIT
Method: In order to verify that the anti-human TIGIT antibody binds to a monkey TIGIT, the following experiments were specifically performed. The CHO-engineered cell CHO-cynoTIGIT cells recombinantly expressing full-length […] cynoTIGIT were counted; centrifugated at 300 g for 5 min; resuspended with an FCM buffer; and cell density was adjusted to 4E+06 cell/mL for later use.
Samples to be detected (including a positive control antibody and a mouse monoclonal antibody) were diluted with the FCM buffer to 20 μg/mL, and then the FCM buffer was used to perform 3× serial dilutions of 12 concentration points; and an isotype control antibody was diluted with the FCM buffer to 20 μg/mL. According to an experimental design, in each well, 50 μL of the antibody and 50 μL of the cell (the volume of each cell added into a 96-well V-shaped plate being 2E+05 cell/well) were respectively added in the 96-well V-shaped plate; and incubation was performed in dark on ice for 30 min. Centrifugation (300 g/5 min) was performed; supernatant was discarded; 200 μL of the FCM buffer was added for washing once; centrifugation (300 g/5 min) was performed; and the supernatant was discarded. […] Centrifugation (300 g/5 min) was performed; supernatant was discarded; 200 μL of the FCM buffer was added for washing once; centrifugation (300 g/5 min) was performed; and the supernatant was discarded. 100 μL of the 1×PBS was added for resuspending, and on-machine detection was performed.

[2] = molecular target: T2, human Tigit extracellular domain recombinant protein hTigit-his (Acrobiosystem, Cat.TIT-H2H3) (human, UniProt Q495A1 22-141); experiment: BLI epitope binning (ForteBIO QKe), hTigit-his on anti-Penta-HIS sensor; competitor R0300
T2 construct: extracellular domain; Bought; not shown: his tag
T2 sequence (looked up): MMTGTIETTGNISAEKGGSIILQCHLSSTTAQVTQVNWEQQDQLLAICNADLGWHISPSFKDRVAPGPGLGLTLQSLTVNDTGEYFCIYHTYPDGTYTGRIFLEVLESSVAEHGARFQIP
Method: Epitope competition analysis was performed on an anti-human TIGIT antibody with an MD ForteBIO QKe platform. An experimental method included: a human Tigit extracellular domain recombinant protein hTigit-his (Acrobiosystem, Cat.TIT-H2H3, lot-1336-76GF1-F9) carrying a his tag was diluted with an equilibration buffer (1×PBS+0.02% Tween 20), until the final concentration was 1.5 μg/ml. The anti-human Tigit antibody was diluted with the equilibration buffer (1×PBS+0.02% Tween 20), the final concentration being 5 μg/ml. After an anti-Penta-HIS biosensor (ForteBIO, Cat. 18-5122) was fully hydrated, first the hTigit-his recombinant protein was solidified for 180 seconds, then equilibrated for 30 seconds, and bound to the first anti-human Tigit antibody for 180 seconds, then equilibrated for 30 seconds, and then bound to the second anti-human Tigit antibody, binding time being 300 seconds. The whole reaction was performed at 25° C. and 1000 rpm; and finally, Octet analysis software was used to perform epitope binning analysis.

[3] = molecular target: T3, full-length human TIGIT on cells (human, UniProt Q495A1 22-244); experiment: FACS blocking: antibody on CHO-hTIGIT cells, then hPVR-hFc, PE anti-human IgG Fc; blocked ligand hPVR-hFc
T3 construct: whole, on cells; The same protein is used for CHO-hTIGIT, PBMC and NK92-hTIGIT; the cells are named under assay; also called CHO-hTIGIT; hTIGIT
T3 sequence (looked up): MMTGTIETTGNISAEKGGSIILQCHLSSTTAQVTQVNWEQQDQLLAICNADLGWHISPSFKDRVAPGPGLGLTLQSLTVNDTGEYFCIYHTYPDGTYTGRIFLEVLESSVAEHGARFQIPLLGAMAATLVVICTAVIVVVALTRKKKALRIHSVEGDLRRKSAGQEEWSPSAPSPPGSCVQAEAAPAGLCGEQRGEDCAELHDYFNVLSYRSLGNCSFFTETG
Method: The CHO-engineered cells CHO-hTIGIT cells recombinantly expressing full-length human TIGIT were counted, and centrifugated at 300 g for 5 min, resuspended with an FCM buffer, and cell density was adjusted to 4E+06 cell/mL for later use. […] According to an experimental design, in each well, 50 μL of the antibody and 50 μL of the cell (the volume of each cell added into a 96-well V-shaped plate being 2E+05 cell/well) were respectively added in the 96-well V-shaped plate; and incubation was performed in dark on ice for 30 min. The ligand protein was added to the 96-well V-shaped plate (in 50 μL/well); and incubation was performed in dark on ice for 30 min. Centrifugation (300 g/5 min) was performed; supernatant was discarded; 200 μL of the FCM buffer was added for washing once; centrifugation (300 g/5 min) was performed; and the supernatant was discarded. Secondary antibodies (PE anti-human IgG Fc, 1:500 dilution) were added to the 96-well V-shaped plate (in 100 μL/well); and incubation was performed in dark on ice for 30 min. Centrifugation (300 g/5 min) was performed; supernatant was discarded; 200 μL of the FCM buffer was added for washing once; centrifugation (300 g/5 min) was performed; and the supernatant was discarded. 100 μL of the 1×PBS was added for resuspending, and on-machine detection was performed.

[4] = molecular target: T4, hTIGIT-hFc (human, UniProt Q495A1 22-141); experiment: FACS blocking: antibody preincubated with hTIGIT-hFc, then CHO-hPVR cells, PE anti-human IgG Fc; blocked partner PVR on cells
T4 construct: also called antigen protein hTIGIT-hFc; human TIGIT recombinant protein carrying a human Fc tag; not shown: human Fc tag
T4 sequence (looked up): T2 sequence (looked up)
Method: The CHO-engineered cells CHO-hPVR cells recombinantly expressing full-length human PVR were counted centrifugated at 300 g for 5 min, resuspended with an FCM buffer, the cells were added to the 96-well V-shaped plate; the volume of each cell added into a 96-well V-shaped plate was 2E+05 cell/well (being added in 50 μL/well); and incubation was performed in dark on ice for 30 min. Centrifugation (300 g/5 min) was performed; supernatant was discarded; 200 μL of the FCM buffer was added for washing once; centrifugation (300 g/5 min) was performed; and the supernatant was discarded. Secondary antibodies (PE anti-human IgG Fc, 1:500 dilution) were added to the 96-well V-shaped plate (in 100 μL/well); and incubation was performed in dark on ice for 30 min. Centrifugation (300 g/5 min) was performed; supernatant was discarded; 200 μL of the FCM buffer was added for washing once; centrifugation (300 g/5 min) was performed; and the supernatant was discarded. 100 μL of the 1×PBS was added for resuspending, and on-machine detection was performed.

T1 sequence (A0A7N9I9V4 entry or part of it): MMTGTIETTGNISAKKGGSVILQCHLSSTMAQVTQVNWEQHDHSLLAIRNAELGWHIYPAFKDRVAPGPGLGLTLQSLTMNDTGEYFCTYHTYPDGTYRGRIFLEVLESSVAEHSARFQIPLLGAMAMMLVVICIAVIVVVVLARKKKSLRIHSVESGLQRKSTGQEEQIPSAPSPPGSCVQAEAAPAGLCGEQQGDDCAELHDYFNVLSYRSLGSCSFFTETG

EC50 [1]: 0.426 nM | epitope binning signal (name and unit not given) [2]: 0.668 | IC50 (read off the curve) [3]: ~0.3 nM | IC50 (read off the curve) [4]: ~1 nM
B1: Tigit-5 mouse monoclonal antibody (antibody, V domains shown)
VH: QVQLQQPGAELVRPGASVKLSCKASGYSFTSYWMNWVKQRPGQGLEWIGMIRPSDSETRLNQMFKDKATLTVDKSSSTAYMQLSSPTSDDSAVYYCAGIHDYGHGAYWGQGTLVTVSA
VL: DIQMIQSPASLSVSVGETVTITCRASENIYSNLAWYQQKQGKSPQLLVYAASHLPDGVPSRFSGSGSGTQYSLKINSLQSEDFGSYYCQHFWGTPRTFGGGTKLEIKR
notes: Mouse monoclonal antibody from hybridoma

EC50 [1]: 0.758 nM | epitope binning signal (name and unit not given) [2]: 0.0157 | IC50 (read off the curve) [3]: ~0.3 nM | IC50 (read off the curve) [4]: ~1 nM
B2: 3Tigit-16 mouse monoclonal antibody (antibody, V domains shown)
VH: EVQLQQSGPELVKPGASVKMSCKASGFTFTDYFMDWVKQSRGASFEWIGRLNPNNGRTSYNQKFKGKATLTVDKSSSTAYMELNSLTSEDSAVYYCARGDLGRWYFDVWGAGTTVTVSS
VL: QIVLTQSPAIMSASPGEKVTMTCSASSSVSYMHWYQQKSGTSPKRWIYDTSKLASGVPTRFSGSGSGTSYSLTISSMEAEDAASYFCQQWSSNSLTFGAGTKLELKR
notes: as for B1

EC50 [1]: 0.506 nM | epitope binning signal (name and unit not given) [2]: 0.0254 | IC50 (read off the curve) [3]: ~0.3 nM | IC50 (read off the curve) [4]: ~1 nM
B3: 3Tigit-29 mouse monoclonal antibody (antibody, V domains shown)
VH: EVQLQQSGPELVKPGASVKISCKASGYTFTDYNMHWVKQSLGKSLEWIGYVNSFNGNTGYSQKFKSKVTLTVDRSSRTAYMDLRSLTSEDSAVFYCARSSRGGFAYWGQGTLVTVSA
VL: B2 VL with T59A, G65V, S84T, F86Y
notes: as for B1

EC50 [1]: 0.354 nM | epitope binning signal (name and unit not given) [2]: 0.0196
B4: 3Tigit-12 mouse monoclonal antibody (antibody, V domains shown)
VH: QVQLQQSGAELVRPGTSVKMSCKAAGYTFTNYWIGWVKQRPGHGLEWIGDIYPGGGYTNYDEKFKGKATLTADTSSRTAYMQLSSLTSEDSAIYHCVNGGYGSTYGYFDVWGAGTTVTVSS
VL: DIVMSQSPSSLPVSVGEKVTMSCKSSQSLLFSSDQKNYLAWYQQKPGQSPKLLIYWASTRESGVPDRLTGSGSGTDFTLTISSVKAEDLAVYYCQQYHKYPFTFGGGTKLEIKR
notes: as for B1
